How the values were obtained:
Assay type in all cases: in vivo
[1] = tested on: non-human primates (cynomolgus monkey); experiment: Example 22: LNP IV in non-human primates, serum G-CSF/EPO ELISA (Tables 38, 39)
Description: LNP formulations, shown in Table 33 (above), were administered to non-human primates (NHP) (cynomolgus monkey) (n=2) as intravenous injection (IV). The NHP were administered a single modified mRNA IV dose of 0.5 mg/kg, 0.05 mg/kg or 0.005 mg/kg of G-CSF or EPO in a dose volume of 0.5 mL/kg. The NHPs were bled before dosing with the modified mRNA LNP formulations to determine protein expression in the serum and a baseline complete blood count. After administration with the G-CSF modified mRNA formulation the NHP were bled at 8, 24, 48 and 72 hours to determined protein expression. After administration with the EPO modified mRNA formulation the NHP were bled at 8, 24, 48, 72 hours and 7 days to determined protein expression.
Samples collected from the NHPs after they were administered with G-CSF or EPO modified mRNA formulations were analyzed by ELISA to determine protein expression. Neutrophil and reticulocyte count was also determined pre-dose, 24 hours, 3 days, 7 days, 14 days and 18 days after administration of the modified G-CSF or EPO formulation.

[2] = tested on: Sprague-Dawley rats; experiment: Example 34: EPO mRNA in buffer IM in rats, serum EPO (Table 59); details: 13 hours post injection
[3] = tested on: C57/BL6 mice; experiment: Example 34: EPO mRNA in buffer IM or SC in mice, serum EPO (Table 60); details: 13 hours post injection
Description: Mice were intramuscularly or subcutaneously injected with 50 μl of the modified human EPO mRNA (h-EPO), modified luciferase mRNA (Luc) or the formulation buffer (F.Buffer) as described in the dosing chart Table 60. 13 hours post injection blood was collected and serum was analyzed to determine the amount human EPO for each mouse or rat.

[4] = tested on: mice; experiment: Example 42A: G-CSF/EPO mRNA in buffer IM in mice, serum protein at 13 hours (Table 67); details: EPO group: human EPO in mouse serum, IM 100 ug
Description: The mice were bled at 13 hours after the injection to determine the concentration of the human polypeptide in serum in pg/mL (G-CSF groups measured human G-CSF in mouse serum and EPO groups measured human EPO in mouse serum).

[5] = tested on: mice; experiment: Example 65: G-CSF/EPO mRNA in saline in mice, serum protein at 13 hours (Table 97); details: EPO group; 100 ug, 100 μl/mouse, F. buffer, 13 hours after injection
Description: The mice were bled at 13 hours after the injection to determine the concentration of the human polypeptide in serum in pg/mL. (G-CSF groups measured human G-CSF in mouse serum and EPO groups measured human EPO in mouse serum).

B1: EPO: modified mRNA encoding human erythropoietin, SEQ ID NO: 7, Cap1, fully modified with 5-methylcytosine and pseudouridine; LNP NPA-060-1 in Examples 17-22 (nucleic acid)
chain: GGGAAAUAAGAGAGAAAAGAAGAGUAAGAAGAAAUAUAAGAGCCACCAUGGGAGUGCACGAGUGUCCCGCGUGGUUGUGGUUGCUGCUGUCGCUCUUGAGCCUCCCACUGGGACUGCCUGUGCUGGGGGCACCACCCAGAUUGAUCUGCGACUCACGGGUACUUGAGAGGUACCUUCUUGAAGCCAAAGAAGCCGAAAACAUCACAACCGGAUGCGCCGAGCACUGCUCCCUCAAUGAGAACAUUACUGUACCGGAUACAAAGGUCAAUUUCUAUGCAUGGAAGAGAAUGGAAGUAGGACAGCAGGCCGUCGAAGUGUGGCAGGGGCUCGCGCUUUUGUCGGAGGCGGUGUUGCGGGGUCAGGCCCUCCUCGUCAACUCAUCACAGCCGUGGGAGCCCCUCCAACUUCAUGUCGAUAAAGCGGUGUCGGGGCUCCGCAGCUUGACGACGUUGCUUCGGGCUCUGGGCGCACAAAAGGAGGCUAUUUCGCCGCCUGACGCGGCCUCCGCGGCACCCCUCCGAACGAUCACCGCGGACACGUUUAGGAAGCUUUUUAGAGUGUACAGCAAUUUCCUCCGCGGAAAGCUGAAAUUGUAUACUGGUGAAGCGUGUAGGACAGGGGAUCGCUGAUAAGCUGCCUUCUGCGGGGCUUGCCUUCUGGCCAUGCCCUUCUUCUCUCCCUUGCACCUGUACCUCUUGGUCUUUGAAUAAAGCCUGAGUAGGAAG
modifications: Cap1, 5-methylcytosine, pseudouridine
[1]; 0.005 mg/kg IV, Pre-bleed
  Male NHP Serum G-CSF / EPO Concentration: <7.8 pg/mL
[1]; 0.05 mg/kg IV, 8 hours
  Female NHP Serum G-CSF / EPO Concentration: 19,858 pg/ml
  Male NHP Serum G-CSF / EPO Concentration: 7,072 pg/ml
[1]; 0.05 mg/kg IV, 24 hours
  Female NHP Serum G-CSF / EPO Concentration: 18,187 pg/ml
  Male NHP Serum G-CSF / EPO Concentration: 4,913 pg/ml
[1]; 0.05 mg/kg IV, 48 hours
  Female NHP Serum G-CSF / EPO Concentration: 5,291 pg/ml
  Male NHP Serum G-CSF / EPO Concentration: 498 pg/mL
[1]; 0.05 mg/kg IV, 72 hours
  Female NHP Serum G-CSF / EPO Concentration: 744 pg/mL
  Male NHP Serum G-CSF / EPO Concentration: 60 pg/mL
[1]; 0.05 mg/kg IV, 7 days
  Female NHP Serum G-CSF / EPO Concentration: <7.8 pg/mL
  Male NHP Serum G-CSF / EPO Concentration: <7.8 pg/mL
[1]; 0.05 mg/kg IV, Pre-bleed
  Female NHP Serum G-CSF / EPO Concentration: <7.8 pg/mL
  Male NHP Serum G-CSF / EPO Concentration: <7.8 pg/mL
[1]; 0.5 mg/kg IV, 8 hours
  Female NHP Serum G-CSF / EPO Concentration: 158,771 pg/ml
  Male NHP Serum G-CSF / EPO Concentration: 119,086 pg/ml
[1]; 0.5 mg/kg IV, 24 hours
  Female NHP Serum G-CSF / EPO Concentration: 133,978 pg/ml
  Male NHP Serum G-CSF / EPO Concentration: 85,825 pg/ml
[1]; 0.5 mg/kg IV, 48 hours
  Female NHP Serum G-CSF / EPO Concentration: 45,250 pg/ml
  Male NHP Serum G-CSF / EPO Concentration: 64,793 pg/ml
[1]; 0.5 mg/kg IV, 72 hours
  Female NHP Serum G-CSF / EPO Concentration: 15,097 pg/ml
  Male NHP Serum G-CSF / EPO Concentration: 20,407 pg/ml
[1]; 0.5 mg/kg IV, 7 days
  Female NHP Serum G-CSF / EPO Concentration: <7.8 pg/mL
  Male NHP Serum G-CSF / EPO Concentration: <7.8 pg/mL
[1]; 0.5 mg/kg IV, Pre-bleed
  Female NHP Serum G-CSF / EPO Concentration: <7.8 pg/mL
  Male NHP Serum G-CSF / EPO Concentration: <7.8 pg/mL
[1]; NHP IV
  protein expression not detected beyond: ≤ 7 days
[2]; dose 1 μg
  human EPO in serum, Avg.: 28.7 pg/mL
  human EPO in serum, Geometric-mean: 25.4 pg/mL
[2]; dose 10 μg
  human EPO in serum, Avg.: 46.3 pg/mL
  human EPO in serum, Geometric-mean: 31.2 pg/mL
[2]; dose 50 μg
  human EPO in serum, Avg.: 101.5 pg/mL
  human EPO in serum, Geometric-mean: 85.4 pg/mL
[2]; dose 100 μg
  human EPO in serum, Avg.: 79.4 pg/mL
  human EPO in serum, Geometric-mean: 66.9 pg/mL
[2]; dose 150 μg
  human EPO in serum, Avg.: 67.7 pg/mL
  human EPO in serum, Geometric-mean: 67.1 pg/mL
[3]; mice IM, dose 1 μg
  Average Level in serum (human EPO): 2.6 pg/mL
[3]; mice IM, dose 10 μg
  Average Level in serum (human EPO): 25.9 pg/mL
[3]; mice IM, dose 25 μg
  Average Level in serum (human EPO): 18.7 pg/mL
[3]; mice IM, dose 50 μg
  Average Level in serum (human EPO): 63.5 pg/mL
[3]; mice IM, dose 100 μg
  Average Level in serum (human EPO): 96.2 pg/mL
[3]; mice SC, dose 100 μg
  Average Level in serum (human EPO): 72.0 pg/mL
[4]
  Average Protein Product, serum: 191.5 pg/mL
[5]
  Average Protein Product, serum (human EPO): 72.03 pg/mL
